From US20240240160A1, “NOVEL OLIVETOL SYNTHASES FOR C[…]” (priority 2021, published 2024)

Key:
[1] = test system: E. coli derivative strain which overexpressed an acyl-CoA synthetase (fadD) gene and expressed an olivetolic acid cyclase (OAC) from Cannabis sativa; experiment: OL, OLA and PDAL production in E. coli from plasmid-expressed Type-III PKS genes; format: cell-based; details: gene on plasmid
Procedure, shortened: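 E. coli strains expressing codon-optimized Type-III PKS genes (constitutive promoter) plus fadD overexpression and C. sativa OAC, grown at 32° C in P-minimal medium with 2% glucose, spiked with 4 mM hexanoic acid; harvested 3 h or 21 h post-spike. Butyl acetate extracts BSTFA-derivatized, OLA/OL/PDAL quantified by GC-FID.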

[2] = test system: E. coli derivative strain which overexpressed an acyl-CoA synthetase (fadD) gene and expressed an olivetolic acid cyclase (OAC) from Cannabis sativa; experiment: OL, OLA and PDAL production in E. coli from genome-integrated Type-III PKS genes; format: cell-based
Experimental: To test olivetolic acid production in E. coli, strains comprising a putative OLS gene and an OAC gene from C. sativa were inoculated in multi-well plates containing LB supplemented with 1% glucose and appropriate concentrations of antibiotics. After 6 hours of cultivation at 32° C., the cells were transferred with a 10% inoculum to a P-limited seed medium (see Table 2) and cultivated for ˜18 hours at 32° ° C. to reach an OD of 2.0-4.0. The cultures were transferred with a 20% inoculum in a P-minimal medium (see Table 3) supplemented with 2% glucose and appropriate concentrations of antibiotics. After 3 hours of cultivation at 32° C., the culture was spiked with 4 mM hexanoic acid (˜OD 1.5-2.0). The resulting cultures were then harvested at either 3 hours or 21 hours post hexanoic acid spike; a final OD was taken. 300 μL of butyl acetate containing 500 mg/L undecanoic acid was added to each multi-well plate. The plates were then vortexed for 30 minutes at 1500 rpm and centrifuged for 10 minutes at 4500 rpm. 50 μL of organic layer was transferred to a 96-well plate and derivatized with 50 μL of N,O-Bis(trimethylsilyl)trifluoroacetamide (BSTFA). The plate was then incubated at room temperature for 2 hours to allow for complete derivatization. The samples were then run on GC-FID for analytical quantification of olivetolic acid (OLA), olivetol (OL), PDAL, and hexanoic acid.
Olivetol, PDAL, OLA, HTAL, CBGA and combinations thereof were analyzed by LCMS or LCMS/MS methods using C18 reversed phase chromatography coupled to either EXACTIVE™ (ThermoFisher) or QTRAP® 4500 (Sciex) mass spectrometers.
For reversed phase LCMS, compounds were identified by their LC retention times and MRM transitions specific to the compounds. LCMS/MS analysis was conducted on a Shimadzu UHPLC system coupled with AB Sciex QTRAP 4500 mass spectrometer. Agilent Eclipse XDB C18 column (4.6×3.0 mm, 1.8 μm) was used with a 1-min gradient elution at 1 mL/min using water containing 0.1% ammonia acetate as mobile phase A and 90% methanol containing 0.1% ammonia acetate as mobile phase B. The LC column temperature was maintained at 45° C. Negative ionization mode was used for all the analytes.
Three of the type-III PKS genes from Example 1 were integrated under control of a constitutive promoter into an E. coli derivative strain which overexpressed an acyl-CoA synthetase (fadD) gene and expressed an olivetolic acid cyclase (OAC) from Cannabis sativa.
The in vivo assay procedure and analytical methods were performed as described above.

[3] = test system: hexanoyl-CoA and malonyl-CoA; experiment: Specific activity assay of purified type-III polyketide synthases (OLA formation in presence of OAC); format: biochemical; details: hexanoyl-CoA and malonyl-CoA in the presence of OAC; FIG. 3
Experimental: In this Example, the specific activities of three previously uncharacterized type-III polyketide synthases (PKS) to form olivetolic acid from hexanoyl-CoA and malonyl-CoA in the presence of olivetolic acid cyclase (OAC) were determined and compared to the olivetol synthase (OLS) from C. sativa.
Assays were performed in a total volume of 50 μL in 100 mM Tris, pH 7.5 buffer containing 100 μM malonyl-CoA; 100 µM hexanoyl-CoA; a malonyl-CoA regenerating system comprising malonyl-CoA synthetase, excess malonate, and ATP; and excess purified olivetolic acid cyclase (OAC). The major product in this assay was olivetolic acid (OLA), and the triketide pentyl diacetic acid lactone (PDAL) was a side product. N-His-tagged purified enzymes were assayed under these assay conditions at enzyme concentrations and reaction times suitable for initial rate measurements of product formation. Reactions were initiated by addition of the PKS, then incubated for 30 min. Subsequently, 10 μL of reaction solution was removed and quenched into 15 volumes of 75% acetonitrile containing 0.1% formic acid and internal standards, then centrifuged to pellet denatured protein. Supernatants were transferred to fresh plates for LC-MS analysis of OLA, olivetol (OL), and PDAL as described in the Method section above.

[4] = test system: hexanoyl-CoA or butyryl-CoA; experiment: High-throughput activity assay of OLS_Aro and its variants in cell lysate; format: biochemical; details: in the absence of Olivetolic acid Cyclase (OAC)
Text: Single amino acid positions of interest of OLS_Aro were identified based on a 7 Å radial proximity around the active site predicted based on docking results with the tetraketide product into a structural homology model of OLS_Aro. Variants were constructed as a plasmid-based library using specific primers at the positions undergoing mutagenesis, amplifying fragments via Polymerase Chain Reaction (PCR), and circularizing plasmids via Gibson ligation. For site-saturation mutagenesis of selected amino acids sites, a compressed-codon approach was used to eliminate codon redundancy to lower library size. The plasmid-base used was the pZS*vector (Novagen) with expression of the OLS_Aro under control of a pAl promoter and lactose (lac) operator. […]
Single colonies were picked for growth in Luria Bertani (LB) medium in 384-well plates containing with carbenicillin (Carb). […] Cells pellets were stored at −20° C. until ready for assay. […]
Reactions were initiated by addition of cell lysate, then incubated for 20 mins or 1 hr for hexanoyl-CoA and butyryl-CoA, respectively. […] Filtrates analyzed by LC/MS for the quantification of olivetolic acid (OLA), olivetol (OL), and pentyl diacetic acid lactone (PDAL); or divarinic acid (DVA), divarinol (DVL), and propyl diacetic acid lactone (Propyl-DAL). […]
Under the screening conditions described above, products are detected in the low or sub μM range. […]

[5] = constitutive promoter, culture spiked with 4 mM hexanoic acid
[6] = constitutive promoter, 4 mM hexanoic acid

B1: QDX46968.1: Type-III PKS enzyme (OLS) from Anoectochilus roxburghii, designated OLS_Aro (protein, listed as Anoectochilus roxburghii)
chain: MPSLESIRKAPRADGLASILAIGRANPDNFMEQSSFPDFFFRITGSDHLVDLKKKFQRICDRTAIRKRHFVWNEEFIKANPCFSTFMDNSLNVRQEVAIREIPKLGAEAATKAIKEWGQPKSRITHLIFCTTSGMDLPGADYQLTRILGLNPNVERVMLYQQGCFAGGTTLRLAKCLAESRKGARVLVVCAETTTVLFRAPSEEHQEDLVTQALFADGASAVIVGADPDEEAHEKASFVIFSTSQVLLPDSEGAIGGHVSEGGLLATLHRDVPQLVSKNVGKCLEEAFTPLGISDWNSIFWVPHPGGRAILDQIEERVGLKPEKLTTSRHVLAEYGNMSSVCVHFVLDEMRKKSSKEGKATTGEGLEWGVLFGFGPGLTVETVVLRSVPL
modifications: (1)..(390) QDX46968.1
Total ([1]; OL + OLA + PDAL): 1956 µM
levels of OLA relative to the E. coli strain with OLS from C. sativa [1]: over two-fold
OL [1, 5]: 597 µM
OLA [1, 5]: 823 µM
PDAL [1, 5]: 536 µM
products produced by strains with chromosomally expressed enzyme [2]: produced olivetol (OL), olivetolic acid (OLA) and pentyl diacetic acid lactone (PDAL)
Total ([2]; OL + OLA + PDAL): 276 µM
OL [2, 6]: 98 µM
OLA [2, 6]: 136 µM
PDAL [2, 6]: 42 µM
specific activity to form olivetolic acid compared with OLS from C. sativa [3]: higher specific activities
reaction products [4]: the major products are OL and PDAL or DVL and Propyl-DAL
